Literature values as cited in paper PMC2871139.
Read-outs that look alike come from different tables or passages of the source.

How the values were obtained:
A1 [1] = target: A1 (UniProt Q07440)
A1 [2] = target: A1 (UniProt Q07440); remark: listed apart in the source
A1 [3] = target: A1 (UniProt Q07440); remark: listed apart in the source
A1 [4] = target: A1 (UniProt Q07440); remark: listed apart in the source

UniProt Q07440, sequence (Q07440 whole entry): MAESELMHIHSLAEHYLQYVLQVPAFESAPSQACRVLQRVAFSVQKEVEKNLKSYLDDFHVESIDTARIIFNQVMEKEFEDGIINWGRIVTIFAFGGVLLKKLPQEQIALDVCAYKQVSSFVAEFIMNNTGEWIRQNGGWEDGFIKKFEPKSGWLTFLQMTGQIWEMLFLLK

In the case of Bak BH3 (from UniProt O08734), the Kd (A1 [1]) is given as less than 3 nM.

For Bid BH3 (from UniProt P70444), the Kd (A1 [2]) is listed as less than 3 nM.

For Bmf BH3 (from UniProt Q91ZE9), the Kd (A1 [3]) is listed as 180 nM.

For Puma BH3 (from UniProt Q9BXH1), the Kd (A1 [4]) is given as less than 3 nM.
